The values below come from the supplement of paper PMC7877785.

± gives the uncertainty stated by the source.

This series can be described thus: self-splicing fitness, log relative to wild type (ln ratio); higher = more splicing; Tetrahymena group I intron in knt gene, E. coli kanamycin selection, DiMSum; sequences stand for … in CUCUCU…GGAGGGAAAAGUUAUCAGGCAUGCACCUGGUAGCUAGUCUUUAAACCAAUAGAUUGCAUCGGUUUAAAAGGCAAGACCGUCAAAUUGCGGGAAAGGGGUCAACAGCCGUUCAGUACCAAGUCUCAGGGGAAACUUUGAGAUGGCCUUGCAAAGGGUAUGGUAAUAAGCUGACGGACAUGGUCCUAACCACGCAGCCAAGUCCUAAGUCAACAGAUCUUCUGUUGAUAUGGAUGCAGUUCACAGACUAAAUGUCGGUCGGGGAAGAUGUAUUCUUCUCAUAAGAUAUAGUCGGACCUCUCCUUAAUGGGAGCUAGCGGAUGAAGUGAUGCAACACUGGAGCCGCUGGGAACUAAUUUGUAUGCGAAAGUAUAUUGAUUAGUUUUGGAGUACUCGUGGUCG
Put shortly: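 DiMSum derived fitness as the error-weighted combination of fold changes across replicates, kanamycin versus no kanamycin, normalised to wild type. E. coli BL21(DE3) held the library, which randomised all eight P1ex-region intron nucleotides within the knt kanamycin-resistance gene on pET-22b(+). Six replicate transformations grew overnight at 37°C or 30°C on LB agar with or without 25 μg/mL kanamycin, also containing 100 μg/mL carbenicillin, 50 μM IPTG and 0.2% rhamnose, and pooled colonies were amplicon-sequenced on an Illumina HiSeq 2500.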

Take UGAAAGCAAUAUUACGGUGA: the “self-splicing fitness (ln)” value reads like this: (30 °C) -1.27 ± 0.11; (37 °C) -1.04 ± 0.14.
In the same order, the values of CAGGAGCAAUAUUACGGGUU are -4.36 ± 0.25 and -2.99 ± 0.19.
As for AACUAGCAAUAUUACGGCCC, the “self-splicing fitness (ln)” value is -1.6 ± 0.17 (30 °C) and -0.325 ± 0.24 (37 °C).
The corresponding values for CGCGAGCAAUAUUACGAGAU are -2.7 ± 0.28 and -2.19 ± 0.26.
For AUCCAGCAAUAUUACGUUAC, the “self-splicing fitness (ln)” value reads like this: (30 °C) -3.89 ± 0.24; (37 °C) -2.59 ± 0.22.
The corresponding values for GGCAAGCAAUAUUACGGUGC are -2.87 ± 0.16 and -1.77 ± 0.17.
As for UCGAAGCAAUAUUACGUGUU, the “self-splicing fitness (ln)” value by setting is: (30 °C) -3.56 ± 0.2; (37 °C) -2.47 ± 0.19.
The corresponding values for CACCAGCAAUAUUACGCAAG are -0.716 ± 0.093 and -0.12 ± 0.11.
For the sequence AGUGAGCAAUAUUACGAGAC, the “self-splicing fitness (ln)” value (37 °C) was -2.17 ± 0.24.
AAGAAGCAAUAUUACGGGGG: the “self-splicing fitness (ln)” value is, setting by setting: (30 °C) -2.79 ± 0.21; (37 °C) -2.09 ± 0.23.
In the same order, the values of UAAUAGCAAUAUUACGACCU are -1.69 ± 0.15 and -0.4 ± 0.15.
In the same order, the values of UUAAAGCAAUAUUACGGGCU are -2.46 ± 0.11 and -0.716 ± 0.1.
As to UGGGAGCAAUAUUACGCGUC, the “self-splicing fitness (ln)” value (30 °C) is -0.5 ± 0.36.
For the sequence AUGAAGCAAUAUUACGCGUG, the “self-splicing fitness (ln)” value reads like this: (30 °C) -0.281 ± 0.066; (37 °C) -0.171 ± 0.099.
In the same order, the values of GCCAAGCAAUAUUACGGCCC are -2.13 ± 0.2 and -1.57 ± 0.22.
In the same order, the values of UGAGAGCAAUAUUACGAAGU are -3.04 ± 0.26 and -2.55 ± 0.31.
As to CUUUAGCAAUAUUACGACCG, the “self-splicing fitness (ln)” value was -0.732 ± 0.27 (30 °C) and 0.518 ± 0.26 (37 °C).
In the same order, the values of CGACAGCAAUAUUACGCCAG are -1.73 ± 0.11 and -0.84 ± 0.13.
The corresponding values for UUCGAGCAAUAUUACGAGCA are -1.41 ± 0.16 and -0.946 ± 0.15.
GGAAAGCAAUAUUACGAUGU: the “self-splicing fitness (ln)” value was -1.69 ± 0.094 (30 °C) and -0.262 ± 0.13 (37 °C).
In the same order, the values of UCACAGCAAUAUUACGUUCG are -1.07 ± 0.061 and -0.209 ± 0.09.
In the same order, the values of GGUAAGCAAUAUUACGUUAU are -2.4 ± 0.17 and -2.3 ± 0.24.
The corresponding values for GGGAAGCAAUAUUACGGGAG are -3.28 ± 0.32 and -2.09 ± 0.27.
CUGGAGCAAUAUUACGCUUC: the “self-splicing fitness (ln)” value (30 °C) was -2.1 ± 0.28.
With CCGCAGCAAUAUUACGCAUA, the “self-splicing fitness (ln)” value is -3.34 ± 0.19 (30 °C) and -2.31 ± 0.17 (37 °C).
In the case of CUAUAGCAAUAUUACGACUC, for the setting “37 °C”, the “self-splicing fitness (ln)” value was -1.31 ± 0.39.
As for CGCCAGCAAUAUUACGGGGA, the “self-splicing fitness (ln)” value was -3.02 ± 0.22 (30 °C) and -3.06 ± 0.27 (37 °C).
The corresponding values for AAAUAGCAAUAUUACGAUUA are 0.0855 ± 0.11 and 0.0228 ± 0.096.
The corresponding values for GGUUAGCAAUAUUACGUGAC are -2.98 ± 0.28 and -2.33 ± 0.34.
In the same order, the values of CUAAAGCAAUAUUACGGCGA are -3.59 ± 0.25 and -1.96 ± 0.19.
GAUCAGCAAUAUUACGGGUU: the “self-splicing fitness (ln)” value was -3.12 ± 0.26 (30 °C) and -2.88 ± 0.38 (37 °C).
In the same order, the values of UCUUAGCAAUAUUACGAUUA are -2.37 ± 0.24 and -1.34 ± 0.2.
The corresponding values for AUGGAGCAAUAUUACGUAGU are -2.7 ± 0.11 and -1.62 ± 0.097.
Regarding GGCAAGCAAUAUUACGCAGU, the “self-splicing fitness (ln)” value (30 °C) was -1.88 ± 0.12 and the “self-splicing fitness (ln)” value (37 °C) is -1.43 ± 0.13.
In the same order, the values of UCCAAGCAAUAUUACGUAAG are -4.14 ± 0.3 and -2.37 ± 0.21.
The corresponding values for AGAAAGCAAUAUUACGUUUA are -1.96 ± 0.13 and -1.04 ± 0.11.
In the same order, the values of CUAGAGCAAUAUUACGAAUC are -3.87 ± 0.36 and -2.07 ± 0.21.
For GAACAGCAAUAUUACGGGAA, the “self-splicing fitness (ln)” value runs as follows: (30 °C) -2.38 ± 0.2; (37 °C) 0.0433 ± 0.14.
In the case of GGGUAGCAAUAUUACGCAGA, the “self-splicing fitness (ln)” value was -2.97 ± 0.28 (30 °C) and -1.93 ± 0.26 (37 °C).
Regarding AAUUAGCAAUAUUACGGCUU, the “self-splicing fitness (ln)” value (30 °C) was -0.0634 ± 0.092 and the “self-splicing fitness (ln)” value (37 °C) was 0.169 ± 0.13.
Take GGGGAGCAAUAUUACGAUGC: the “self-splicing fitness (ln)” value (30 °C) is -1.06 ± 0.42.
Take AUAUAGCAAUAUUACGACCG: the “self-splicing fitness (ln)” value (30 °C) is -1.62 ± 0.22 and the “self-splicing fitness (ln)” value (37 °C) worked out at 0.433 ± 0.41.
GCAAAGCAAUAUUACGGUGC: the “self-splicing fitness (ln)” value runs as follows: (30 °C) -2.45 ± 0.12; (37 °C) -3.66 ± 0.27.
As for GAGGAGCAAUAUUACGUGUA, where the note is “37 °C”, the “self-splicing fitness (ln)” value is -3.62 ± 0.35.
Turning to AGCCAGCAAUAUUACGUACU, the “self-splicing fitness (ln)” value reads like this: (30 °C) -0.0754 ± 0.072; (37 °C) 0.219 ± 0.086.
As for AGCGAGCAAUAUUACGAGGA, the “self-splicing fitness (ln)” value (30 °C) was -2.36 ± 0.15 and the “self-splicing fitness (ln)” value (37 °C) is -2.6 ± 0.22.
As for UCAGAGCAAUAUUACGCUGU, for the setting “30 °C”, the “self-splicing fitness (ln)” value was -2.98 ± 0.26.
In the case of CUUAAGCAAUAUUACGAAAU, the “self-splicing fitness (ln)” value (30 °C) was -3.41 ± 0.24 and the “self-splicing fitness (ln)” value (37 °C) is -2.48 ± 0.26.
In the same order, the values of UAGUAGCAAUAUUACGGCGA are -1.17 ± 0.17 and -0.54 ± 0.17.
Consider ACCAAGCAAUAUUACGCGGG, for which the “self-splicing fitness (ln)” value (30 °C) is -3.38 ± 0.11 and the “self-splicing fitness (ln)” value (37 °C) was -2.18 ± 0.1.
In the same order, the values of CCCUAGCAAUAUUACGGCCG are -2.29 ± 0.36 and -1.62 ± 0.34.
The corresponding values for AGGCAGCAAUAUUACGAUCU are 0.0214 ± 0.086 and 0.2 ± 0.12.
In the same order, the values of CUGGAGCAAUAUUACGCCGU are -2.44 ± 0.4 and -1.06 ± 0.38.
Consider UCGUAGCAAUAUUACGUCUA, for which the “self-splicing fitness (ln)” value reads like this: (30 °C) -1.48 ± 0.1; (37 °C) -0.978 ± 0.12.
As for CGCAAGCAAUAUUACGGUAG, the “self-splicing fitness (ln)” value (30 °C) was -0.472 ± 0.053 and the “self-splicing fitness (ln)” value (37 °C) was -0.388 ± 0.06.
In the same order, the values of CACGAGCAAUAUUACGCGGA are -3.61 ± 0.37 and -3.37 ± 0.4.
In the same order, the values of AGGAAGCAAUAUUACGCCUA are -0.554 ± 0.12 and -0.497 ± 0.14.
In the same order, the values of CCUGAGCAAUAUUACGAGAG are -3.7 ± 0.26 and -0.438 ± 0.1.
For the sequence UUUCAGCAAUAUUACGGCUG, the “self-splicing fitness (ln)” value (30 °C) was -4.1 ± 0.46 and the “self-splicing fitness (ln)” value (37 °C) is -1.84 ± 0.27.
In the case of AUAGAGCAAUAUUACGUCGC, the “self-splicing fitness (ln)” value by setting is: (30 °C) -2.68 ± 0.2; (37 °C) -0.381 ± 0.18.
In the same order, the values of CGCAAGCAAUAUUACGAUGA are -0.874 ± 0.064 and -0.853 ± 0.071.
For GAUGAGCAAUAUUACGUACG, the “self-splicing fitness (ln)” value was -2.59 ± 0.35 (30 °C) and -1.55 ± 0.5 (37 °C).
In the same order, the values of CCUGAGCAAUAUUACGUGAC are -3.82 ± 0.25 and -2.17 ± 0.22.
In the same order, the values of CUCAAGCAAUAUUACGUGCC are -2.96 ± 0.11 and -2.29 ± 0.17.
As to GAUCAGCAAUAUUACGUACU, the “self-splicing fitness (ln)” value is -0.188 ± 0.067 (30 °C) and -0.441 ± 0.074 (37 °C).
The corresponding values for AAUUAGCAAUAUUACGCUAU are -2.55 ± 0.26 and -1.97 ± 0.31.
In the same order, the values of GAGUAGCAAUAUUACGGUCG are -1.15 ± 0.16 and -0.697 ± 0.19.
Regarding AGUAAGCAAUAUUACGGUUG, the “self-splicing fitness (ln)” value reads like this: (30 °C) -3.09 ± 0.23; (37 °C) -2.51 ± 0.25.
In the same order, the values of UAUAAGCAAUAUUACGAAUU are -2.74 ± 0.19 and -0.731 ± 0.2.
With UGCUAGCAAUAUUACGCUGA, the “self-splicing fitness (ln)” value (30 °C) is -1.25 ± 0.12 and the “self-splicing fitness (ln)” value (37 °C) is -1.18 ± 0.13.
The corresponding values for ACUAAGCAAUAUUACGAGGC are -3.03 ± 0.23 and -2.48 ± 0.25.
In the same order, the values of CGUUAGCAAUAUUACGGGGU are -3.72 ± 0.24 and -2.03 ± 0.35.
In the same order, the values of GGUUAGCAAUAUUACGUCCA are -1.17 ± 0.3 and -0.199 ± 0.34.
ACCCAGCAAUAUUACGUUGG: the “self-splicing fitness (ln)” value was -3.6 ± 0.1 (30 °C) and -2.16 ± 0.11 (37 °C).
In the case of CCAAAGCAAUAUUACGCACA, the “self-splicing fitness (ln)” value (30 °C) is -3.55 ± 0.34 and the “self-splicing fitness (ln)” value (37 °C) was -1.66 ± 0.32.
In the same order, the values of AGAAAGCAAUAUUACGCAUU are -2.49 ± 0.15 and -2.06 ± 0.22.
Consider AAGGAGCAAUAUUACGAUCA, for which the “self-splicing fitness (ln)” value (30 °C) was -1.18 ± 0.36.
